Test results from ChEMBL document CHEMBL1147688, “Development of a dual fluorogenic and chromogenic dipeptidyl peptidase IV substrate” (Bioorg Med Chem Lett, 2006).

Substrate: NCC(=O)N1CCC[C@H]1C(=O)NCC(=O)N1CCC[C@H]1C(=O)Nc1cc2oc3cc(=[N+](CCCS(=O)(=O)O)CCCS(=O)(=O)O)ccc-3nc2c2ccccc12
Assay: Affinity for DPP4
Details: Homo sapiens

B1: Dipeptidyl peptidase 4 (Homo sapiens), P27487 (protein)
chain: MKTPWKVLLGLLGAAALVTIITVPVVLLNKGTDDATADSRKTYTLTDYLKNTYRLKLYSLRWISDHEYLYKQENNILVFNAEYGNSSVFLENSTFDEFGHSINDYSISPDGQFILLEYNYVKQWRHSYTASYDIYDLNKRQLITEERIPNNTQWVTWSPVGHKLAYVWNNDIYVKIEPNLPSYRITWTGKEDIIYNGITDWVYEEEVFSAYSALWWSPNGTFLAYAQFNDTEVPLIEYSFYSDESLQYPKTVRVPYPKAGAVNPTVKFFVVNTDSLSSVTNATSIQITAPASMLIGDHYLCDVTWATQERISLQWLRRIQNYSVMDICDYDESSGRWNCLVARQHIEMSTTGWVGRFRPSEPHFTLDGNSFYKIISNEEGYRHICYFQIDKKDCTFITKGTWEVIGIEALTSDYLYYISNEYKGMPGGRNLYKIQLSDYTKVTCLSCELNPERCQYYSVSFSKEAKYYQLRCSGPGLPLYTLHSSVNDKGLRVLEDNSALDKMLQNVQMPSKKLDFIILNETKFWYQMILPPHFDKSKKYPLLLDVYAGPCSQKADTVFRLNWATYLASTENIIVASFDGRGSGYQGDKIMHAINRRLGTFEVEDQIEAARQFSKMGFVDNKRIAIWGWSYGGYVTSMVLGSGSGVFKCGIAVAPVSRWEYYDSVYTERYMGLPTPEDNLDHYRNSTVMSRAENFKQVEYLLIHGTADDNVHFQQSAQISKALVDVGVDFQAMWYTDEDHGIASSTAHQHIYTHMSHFIKQCFSLP
In the case of B1, the Km is reported as 56 µM.
